Earlier results in paper PMC6389717.

How the values were obtained:
Lys39 = Lys39 (UniProt position 39, IMAVVKANAYG); test: kinetics; conditions: enzyme-substrate complex (alanine-bound active site, external aldimine)
Asp38 = Asp38 (UniProt position 38, DATVEDPVGSE); test: kinetics (per the article's general statement only; no method given for this value); conditions: presumed enzyme-substrate complex (general statement of the article); not given

Substance	pKa (Lys39)	pKa (Asp38)
Alanine racemase (not stated in the article (inferred: Geobacillus stearothermophilus, formerly Bacillus stearothermophilus))	7.4	–
Ketosteroid isomerase (3-oxo-Delta5-steroid isomerase) (not stated in the article (inferred: Comamonas testosteroni, formerly Pseudomonas testosteroni))	–	4.6
